The target of assay [1] is T1, recombinant His-tagged 6xEMPD (6 times repeated EMPD of mouse mIgE) (Mus musculus (mouse), membrane IgE …).
T1 chain: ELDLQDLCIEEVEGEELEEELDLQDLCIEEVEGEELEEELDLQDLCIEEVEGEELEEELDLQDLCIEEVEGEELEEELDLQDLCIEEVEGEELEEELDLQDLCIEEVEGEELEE
As to the kind of experiment: SPR. On the technique in general: Surface plasmon resonance follows binding to a sensor surface in real time, without labels.

The target of assay [2] is T1, recombinant His-tagged 6xEMPD (6 times …). The assay can be described thus: ELISA. (In an ELISA, binding on a coated surface is turned into a signal by an enzyme label.)

B1: mAbA9, mouse monoclonal anti-mouse EMPD antibody of γ1 isotype (antibody, V domains shown)
VH: EVQLVESGGGLVQPGGSLRLSCATSGFTFTDYYMTWVRQPPGKALEWLGFIRNKANGYTTEYSASVKGRFTVSRDNSQSILYLQMNTLRAEDSATYYCASPIYYGSPSWLWTYWGQGTSVTVSS
VL: QIVLTQSPAIMAASLGQKVTMTCSASSSVSSSYLHWYQQKSGASPKPLIHRTSNLASGVPARFSGSGSGTSYSLTISSVEAEDDATYYCQQWSGYPLTFGAGTKLELK
The term Kd denotes the concentration at which binding is half-saturated. With B1, the Kd in assay [1] worked out at 7.4 nM. Moreover, in assay [2], the “% competition at 10-fold molar excess of 6xEMPD” value was 43%.

The values above are taken from publication PMC2959155 (Journal of immunology (Baltimore, Md. : 1950), 2008).
